For the experiment, the target named is purified rat skin collagen type I (rat) (UniProt P02454). The experiment in a line: affinity chromatography.

The results in this text go back to paper PMC2111462.

Sequence of UniProt P02454 (P02454 152-1207, chain 1 of 2): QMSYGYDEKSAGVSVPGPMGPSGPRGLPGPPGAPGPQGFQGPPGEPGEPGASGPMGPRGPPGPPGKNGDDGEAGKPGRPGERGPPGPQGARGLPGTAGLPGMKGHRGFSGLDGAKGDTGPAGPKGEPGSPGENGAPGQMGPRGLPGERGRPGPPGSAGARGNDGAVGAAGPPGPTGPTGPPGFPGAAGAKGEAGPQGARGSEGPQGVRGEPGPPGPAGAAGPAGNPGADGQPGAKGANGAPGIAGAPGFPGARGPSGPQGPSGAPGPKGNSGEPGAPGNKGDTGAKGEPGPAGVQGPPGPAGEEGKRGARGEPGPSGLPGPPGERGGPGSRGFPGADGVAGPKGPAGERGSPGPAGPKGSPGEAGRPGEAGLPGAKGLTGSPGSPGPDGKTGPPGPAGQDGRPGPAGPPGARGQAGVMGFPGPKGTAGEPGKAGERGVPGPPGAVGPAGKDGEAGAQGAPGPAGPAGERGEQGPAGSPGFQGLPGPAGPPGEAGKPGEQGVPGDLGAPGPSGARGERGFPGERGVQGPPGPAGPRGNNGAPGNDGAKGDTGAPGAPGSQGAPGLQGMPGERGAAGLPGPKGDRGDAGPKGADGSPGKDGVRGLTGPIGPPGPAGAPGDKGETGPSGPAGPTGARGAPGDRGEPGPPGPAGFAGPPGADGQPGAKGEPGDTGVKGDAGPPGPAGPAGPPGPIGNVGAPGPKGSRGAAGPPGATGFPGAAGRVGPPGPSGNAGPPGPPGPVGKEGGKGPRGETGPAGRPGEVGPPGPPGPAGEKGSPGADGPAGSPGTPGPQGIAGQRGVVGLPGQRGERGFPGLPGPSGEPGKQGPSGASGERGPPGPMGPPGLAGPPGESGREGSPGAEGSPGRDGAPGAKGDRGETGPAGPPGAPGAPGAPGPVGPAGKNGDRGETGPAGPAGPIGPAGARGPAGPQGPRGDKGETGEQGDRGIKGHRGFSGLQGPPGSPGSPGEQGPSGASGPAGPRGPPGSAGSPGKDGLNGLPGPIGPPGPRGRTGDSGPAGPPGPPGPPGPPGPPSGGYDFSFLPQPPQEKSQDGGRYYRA
Sequence of UniProt P02454 (P02466 86-1125, chain 2 of 2, further chain): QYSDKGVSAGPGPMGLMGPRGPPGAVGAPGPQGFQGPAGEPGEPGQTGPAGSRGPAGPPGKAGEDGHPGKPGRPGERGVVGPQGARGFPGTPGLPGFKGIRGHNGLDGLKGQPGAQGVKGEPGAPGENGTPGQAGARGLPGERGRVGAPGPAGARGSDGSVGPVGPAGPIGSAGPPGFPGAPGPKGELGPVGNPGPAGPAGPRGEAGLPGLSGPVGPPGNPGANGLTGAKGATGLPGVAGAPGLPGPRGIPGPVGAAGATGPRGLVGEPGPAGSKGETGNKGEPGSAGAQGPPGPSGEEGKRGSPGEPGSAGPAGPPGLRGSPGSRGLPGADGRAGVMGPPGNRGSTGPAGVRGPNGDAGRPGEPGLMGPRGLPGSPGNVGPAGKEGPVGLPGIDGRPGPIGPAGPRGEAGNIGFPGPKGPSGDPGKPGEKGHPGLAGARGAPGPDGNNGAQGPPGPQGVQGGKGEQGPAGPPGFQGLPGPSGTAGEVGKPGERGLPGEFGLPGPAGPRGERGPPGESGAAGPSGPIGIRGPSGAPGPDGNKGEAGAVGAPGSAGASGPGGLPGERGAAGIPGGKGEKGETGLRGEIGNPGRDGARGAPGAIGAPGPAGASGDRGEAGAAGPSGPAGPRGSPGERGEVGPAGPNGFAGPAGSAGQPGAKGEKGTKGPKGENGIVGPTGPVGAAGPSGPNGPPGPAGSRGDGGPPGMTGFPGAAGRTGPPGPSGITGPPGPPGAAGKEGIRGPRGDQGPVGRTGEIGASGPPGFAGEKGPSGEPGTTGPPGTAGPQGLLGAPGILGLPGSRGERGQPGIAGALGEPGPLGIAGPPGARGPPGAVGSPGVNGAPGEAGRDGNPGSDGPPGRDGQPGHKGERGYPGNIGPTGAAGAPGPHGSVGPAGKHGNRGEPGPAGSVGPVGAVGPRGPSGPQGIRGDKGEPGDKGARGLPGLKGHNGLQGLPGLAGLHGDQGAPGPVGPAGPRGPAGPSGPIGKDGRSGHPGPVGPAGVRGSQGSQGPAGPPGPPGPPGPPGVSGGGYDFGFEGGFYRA

“human plasma fibronectin (natural protein)” came in with a KBr concentration at which the bound fibronectin eluted of 1 M.
